From patent US20180371066A1

T1: PEP_2875802
T1 sequence (peptide): HAGTYGLGDRKDQGG

T2: PEP_2875800
T2 sequence (peptide): DHAGTYGLGDRKDQG

T3: PEP_2875828
T3 sequence (peptide): GGYTMHQDQEGDTDA

T4: PEP_2875830
T4 sequence (peptide): GYTMHQDQEGDTDAG

T5: PEP_2875801
T5 sequence (peptide): DHAGTYGLGAAKDQG

T6: PEP_2875803
T6 sequence (peptide): HAGTYGLGDAADQGG

T7: PEP_2875815
T7 sequence (peptide): LGDRKDQGGAAMHQD

T8: PEP_2875805
T8 sequence (peptide): AGTYGLGDRAAQGGY

T9: PEP_2875829
T9 sequence (peptide): GGYTMHQDQAADTDA

T10: PEP_2875807
T10 sequence (peptide): GTYGLGDRKAAGGYT

T11: PEP_2875813
T11 sequence (peptide): GLGDRKDQGAATMHQ


Legend:
[1] = target: T1, PEP_2875802; assay: peptide array of 15-mers of human tau probed with the antibody; label LIN
[2] = target: T2, PEP_2875800; assay: as above
[3] = target: T3, PEP_2875828; assay: as above
[4] = target: T4, PEP_2875830; assay: as above
[5] = target: T5, PEP_2875801; assay: peptide array of 15-mers of human tau probed with the antibody; label LIN.AA (double alanine)
[6] = target: T6, PEP_2875803; assay: as above
[7] = target: T7, PEP_2875815; assay: as above
[8] = target: T8, PEP_2875805; assay: as above
[9] = target: T9, PEP_2875829; assay: as above
[10] = target: T10, PEP_2875807; assay: as above
[11] = target: T11, PEP_2875813; assay: as above

Binding Signal [1]	Binding Signal [2]	Binding Signal [3]	Binding Signal [4]	Binding Signal [5]	Binding Signal [6]	Binding Signal [7]	Binding Signal [8]	Binding Signal [9]	Binding Signal [10]	Binding Signal [11]	Binder
63	61	109	77	52	51	69	58	106	110	80	murine anti-tau antibody HJ8.5 (antibody, V domains shown) VH: EVKVEESGGGLVQPGGSMKLSCVVSGFTFSNYWVNWVRQSPEKGLEWVAQIRLKSDNYATHYEESVKGRFTISRDDSKSSVYLQMNNLRAEDSGIYYCTNWEDYWGQGTTLTVSS VL: DIVLTQSPASLAVSLGQRATISCRASQSVSTSRYSYIHWYQQKPGQPPKLLIKYASNLESGVPARFSGSGSGTDFTLNIHPLEEEDAATYYCHHSWEIPLTFGAGTKLELK
65	78	110	97	90	65	99	76	118	114	65	VH1/VK2 humanized anti-tau antibody (C2N-8E12) (antibody, human IgG4 S228P, kappa, V domains shown) VH: EVKVVESGGGLVQPGGSMKLSCVVSGFTFSNYWVNWVRQAPGKGLEWVAQIRLKSDNYATHYEESVKGRFTISRDDSKSSVYLQMNNLRAEDSGIYYCTNWEDYWGQGTTVTVSS VL: DIVLTQSPDSLAVSLGERATISCRASQSVSTSRYSYIHWYQQKPGQPPKLLIKYASNLESGVPSRFSGSGSGTDFTLNIHPLEPEDFATYYCHHSWEIPLTFGQGTKLEIKR
